B1: MATN2 (parent)
chain: FIVDILQFLDIGPDVTRVGLLQYG
B2: SNURF (parent)
chain: QVPVVDFQAELRQAFLAETPRGG

Variants of: B1
Test: protein stability index of a GFP-peptide fusion (GPS, HEK-293T) (PSI 1-6); higher = more stable
Conditions: c terminus: a fixed tail appended
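Further: lentivirally expressed fusions sorted by FACS into six bins by GFP to DsRed ratio, PSI derived from sequencing read proportions per bin multiplied by bin number.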

Protein stability index of substitutions, site by site:
P13: V 2.93, H 2.73, Q 4, I 2.79, F 1.91, N 3.21, K 2.15, M 2.4, S 2.69, A 3.91, E 2.72, W 2.61
F1: E 2.04, Y 2.36, Q 2.03, N 2.54, P 1.15, K 2.46, V 1.05, A 2.61, W 2.01
D10: W 2.66, L 2.62, R 3.54, E 3.48, T 3.42
I2: K 2.88, Y 3.07, L 1.44, R 2.35, T 1.4, G 3.67, H 3.01
Q22: V 3.57, N 1.93, K 2.98, Y 4.14, A 2.48, F 3.25, S 3.08, G 3.55, M 2.53
D4: Q 2.72, C 2.67, Y 2.58, K 2.12, L 2.53, E 2.88, V 2.77, A 2.58, P 5.01, H 4.41
D14: S 2.67, Y 2.6, N 3.04, E 4.71, A 2.27, H 2.17, I 3.22, P 3.06
G12: D 2.56, N 3.36, M 2.11, Q 2, L 2.63, C 2.76, S 2.61, H 3.69, I 2.79, F 1.9, R 4.05, T 3.93
V18: N 2.16, S 3.5, R 1.82, M 2.55, C 2.58, F 3.25, P 3.38, Q 1.8, K 2.05, D 2.04
Y23: T 3.99, L 1.84, Q 2.29, R 3.61, M 2.75
V15: L 1.88, N 2.49, Y 3.39, M 4.35, I 2.16, F 3.1, P 3.2, A 2.88, D 4.47, W 2.06
G19: A 2.26, D 3.21, L 3.83, S 2.33, V 2.69, Q 2.7, W 2.62, H 3.51, E 3.93, T 3.15, P 2.58, I 2.67, M 3.24, C 1.32
L20: Y 3.45, H 2.86, W 3.97, N 3.71, C 1.87, R 1.79, A 2.25, G 3.72, V 4, F 2.92
I5: Y 3.16, Q 1.81, F 3.88, N 2.12, A 1.44, D 3.18, E 3.96, L 2.26, V 3.23
Q7: E 3.38, A 3.4, K 3.78, T 3.12, Y 3.34, C 2.24, P 2.12, H 1.98, S 2.27, D 3.01
L6: I 2.56, P 1.3, W 3.3, F 2.17, H 3.78, Y 2.87, A 3.92, R 3.41
G24: I 3.62, F 3.31, W 3.04, L 4.05, R 2.18, A 2.27, H 3.37, E 1.99, K 1.81

Variants of: B2
Test: as above
Conditions: c terminus: native

Protein stability index of substitutions, site by site:
V4: A 3.33
Q1: S 2.31, T 3.88, N 2.49
P3: V 3.01, D 3.02, Q 4.82
V2: G 2.61, K 3.98, Q 1.5

— the supplement of paper PMC10567573
